According to publication PMC4027168:

Experiments:
Assay in all cases: EMSA
Details in all cases: 50 mM Tris-HCl pH 8.0, 5 mM EDTA, 1 mM DTT, 100 mg/ml BSA (so in the source), 6% glycerol, on ice 20 min, 4% native PAGE in 6.7 mM Tris-HCl pH 8.0, 3.3 mM Na …, scale: fold of wild-type affinity
[1] = test system: RecG[ΔC1] (Escherichia coli K-12 MG1655?)
[2] = test system: RecG[Y690A] (Escherichia coli K-12 MG1655?)
[3] = test system: RecG[A693Q] (Escherichia coli K-12 MG1655?)
[4] = no Mg2+, 5 mM EDTA, RecG 0-100 nM, DNA 0.2 nM

Measured: binding signal

replication fork lacking a lagging strand
1: [1] | [2] | [3]

J12 Holliday junction
1: [1]; [4] | [2]; [4] | [3]; [4]
